The text below walks through data of patent EP4814013A1 (Nanjing Regenecore Biotech Co., Ltd., dated 2026).

Experiment [1] deals with T1, human recombinant Nkp46 extracellular domain protein, amino acids 22-254 (human, UniProt O76036 22-254).
T1 construct: range 22-254; Made in-house in 293F cells
Briefly: phage display panning and clone ELISA as in Examples 1-4. In general terms: In an ELISA, binding on a coated surface is turned into a signal by an enzyme label.

For experiment [2], the target named is T2, human recombinant CD16a extracellular domain protein, amino acids 17-208 with V at position 176 (CD16a-V176) (human, UniProt P08637 17-208).
T2 construct: range 17-208; Made in-house in 293F cells; also called human CD16a (V176)
T2 sequence (P08637 17-208 F176V limits assumed): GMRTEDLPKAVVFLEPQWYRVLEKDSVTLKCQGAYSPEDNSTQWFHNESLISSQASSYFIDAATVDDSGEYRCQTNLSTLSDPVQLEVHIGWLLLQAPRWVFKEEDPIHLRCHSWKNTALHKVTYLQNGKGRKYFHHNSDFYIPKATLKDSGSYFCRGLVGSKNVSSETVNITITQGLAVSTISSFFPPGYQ
The experiment in a line: ELISA of crude VHH extracts of panned phage-library clones on coated antigen, anti-HA-HRP; positive = OD more than 5 times the control.

In experiment [3] the target is T3, human recombinant FOLR1 extracellular domain protein, amino acids 25-233 (human, UniProt P15328 25-233).
T3 construct: range 25-233; Made in-house in 293F cells
T3 sequence (P15328 25-233 limits assumed): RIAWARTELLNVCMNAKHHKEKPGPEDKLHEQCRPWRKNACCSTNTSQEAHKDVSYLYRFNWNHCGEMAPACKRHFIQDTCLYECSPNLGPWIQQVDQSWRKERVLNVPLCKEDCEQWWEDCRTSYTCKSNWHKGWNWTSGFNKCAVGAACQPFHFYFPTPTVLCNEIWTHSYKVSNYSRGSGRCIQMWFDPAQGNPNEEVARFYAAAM
Briefly: phage display panning and clone ELISA as in Examples 1-4.

For experiment [4], the target named is T4, human recombinant CD16a extracellular domain protein, amino acids 17-208 with F at position 176 (CD16a-F176) (human, UniProt P08637 17-208).
T4 construct: range 17-208; Made in-house in 293F cells; also called human CD16a (F176)
T4 sequence (P08637 17-208 limits assumed): as the sequence (P08637 17-208 F176V limits assumed) above, with V160F counted along it
The experiment in a line: ELISA of crude VHH extracts of panned phage-library clones on coated antigen, anti-HA-HRP; positive = OD more than 5 times the control.

T1 sequence (O76036 22-254 limits assumed): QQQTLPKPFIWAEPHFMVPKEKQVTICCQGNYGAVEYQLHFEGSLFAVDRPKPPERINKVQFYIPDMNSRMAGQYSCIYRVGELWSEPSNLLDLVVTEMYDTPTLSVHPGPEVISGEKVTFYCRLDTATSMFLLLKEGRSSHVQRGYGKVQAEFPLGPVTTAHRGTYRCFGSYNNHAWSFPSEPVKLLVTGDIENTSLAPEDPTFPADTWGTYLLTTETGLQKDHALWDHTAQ

B1: Nkp46-7F10 single-domain antibody (VHH)
VHH: QVQLVESGGGLVQAGGSLRLSCAASGRTFSSYAMGWFRQAPGKEREFVAGISWSGDSTYYADSVKGRFTISRDNAKNTVGLQMNSLKPEDTAVYYCAAASGQVQTVVVVTDRWYHYWGQGTQVTVSS
notes: Parental (not humanized) clone as screened
As for B1, in experiment [1], the binding result is on record as “binds”.

B2: anti-CD16a single-domain antibody clone 14A3 (VHH, crude extract from pMECS) (VHH)
VHH: QVQLVESGGGLVQPGGSLRLSCEVSGRTFSYLALGWFRQAPGKEREFVAAASWGGGSTGYADSVKGRFAISRDNVKNTQYLQMNSLKPEDTAVYYCVVGRRFKGSVYYTPNEYEYWGQGTQVTVSS
notes: Crude antibody extract of an E. coli TG1 clone; not shown: C-terminal tag(s) from the pMECS vector (HA tag detected with anti-HA-HRP, tag for nickel-column purification)
For the molecule B2, the binding result in experiment [2] was “binds”.

B3: anti-CD16a single-domain antibody clone 23D1 (VHH, crude extract from pMECS) (VHH)
VHH: QVQLVESGGGLVQAGGSLRLSCAVSGRTFSYLAMGWFRQAPGKEREFVAASSWGGGTSGYADSVKGRFAISRDNAKNTQYLQMNSLKPEDTAVYYCVVGRRFKGSVYYTPNEYEYWGQGTQVTVSS
notes: as for B2
For the molecule B3, the binding result in experiment [2] was “binds”.

B4: FOLR1-4F4 single-domain antibody (VHH)
VHH: QVQLVESGGGSVQAGGSLRLSCAASDGTYRRYCMGWFRQAPGKEREKVAAIYTGDGTTYYADSVKGRFTISQENAKNTMYLQMNSLKPEDTAMYYCAADRSGCSVAWSYSSFEDWGQGTQVTVSS
notes: as for B1
As for B4, in experiment [3], the binding result was “binds”.

B5: anti-CD16a single-domain antibody clone 13G6 (VHH, crude extract from pMECS) (VHH)
VHH: QVQLVESGGGLVQPGGSLRLSCAASGRTFRIYAMGWFRQAPGKEREFVGSIRLMRGITDYADSVKGRFTISRDNAKFTMYLQMNTLKPEDTAVYYCAAVGSGGDFYTPSTSGEYRYWGQGTQVTVSS
notes: as for B2
For B5, the binding result in experiment [2] was “binds”.

B6: anti-CD16a single-domain antibody clone 15E2 (VHH, crude extract from pMECS) (VHH)
VHH: QVQLVESGGGLVQAGDSLRLSCAASGGTFRIYAMGWFRQAPGKEREFVGSISMMRGITDYAESVKGRFTISRDNAKFTMYLQMNTLKPEDTAVYYCAIRERPPPMGWGLAGISYDYWGQGTQVTVSS
notes: as for B2
Take B6: in experiment [4], the binding result is reported as “binds”.

B7: anti-CD16a single-domain antibody clone 4B5 (VHH, crude extract from pMECS) (VHH)
VHH: QVQLVESGGGLVQAGGSLRLSCAASGGTFRIYAMGWFRQAPGKEREFVGSISMMRGITDYAESVKGRFTISRDNAKFTMYLQMNSLKSEDTAVYYCAKAVDKSPYGGWGWGPYDDWGQGTQVTVSS
notes: as for B2
For the molecule B7, the binding result in experiment [4] is given as “binds”.
